Sequences and labels used below:
B1: biotin-V21H4 (SEQ ID NO:6) (VHH)
VHH: QVQLVESGGGLVQAGGSLRLSCAASGRAFSSYAMGWFRQAPGKERELVAAISWSDDSTYYANSVKGRFTISRDNAKSAVYLQMNSLKPEDTAVYYCAAHKSLQRPDEYTYWGQGTQVTVSS
modifications: biotinylated (site not stated)
notes: The biotinylation method is not described; also called V21H4 antibody
B2: AB1 with linker 2 (SEQ ID NO:7) (VHH)
VHH: B1 VHH
notes: Llama single domain antibody expressed in E. coli BL21(DE3); The monomer fraction from Superdex 75 was used for SPR; also called VR2-21
B3: AB2 with linker 2 (SEQ ID NO:13) (antibody, V domains shown)
VH: QVQLVESGGGLIKPGGSLRLSCAASGFRFSAESMTWVRQAPGKGLEWVSAISSSGGSTYYADSVKGRFTISRDNSKNTVYLQMNSLRAEDTAVYYCVRSPKGCTHASCSWNSGSWGQGTLVTVSS
notes: Single domain antibody on a human VH scaffold, from a human VH library, expressed in E. coli; also called VR2-801-18
B4: AB3 with linker 2 (SEQ ID NO:21) (antibody, V domains shown)
VH: QVQLVESGGGLIKPGGSLRLSCAASGDMLSYDVMSWVRQAPGKGLEWVSAISSSGGSTYYADSVKGRFTISRDNSKNTVYLQMNSLRAEDTAVYYCVAAPWRCTHDNCSKTRASWGQGTMVTVSS
notes: Single domain antibody on a human VH scaffold, expressed in E. coli; also called VR2-801-45
B5: AB4 with linker 2 (SEQ ID NO:27) (VHH)
VHH: QVKLEESGGGLVQAGGSLRLSCAASGGTASSYAMGWFRQAPGKEREFVAAISRSGGNTDYVDSAKGRFTISRDDAKNTVSLQMNSLRLEDTAVYYCAARYAGTWPNDAGTVYWLPPNYNYWGQGTQVTVSS
notes: Llama single domain antibody expressed in E. coli; also called VR2-38
B6: human VEGFR-2/Fc (R&D Systems) (Fc fusion)
chain: ASVGLPSVSLDLPRLSIQKDILTIKANTTLQITCRGQRDLDWLWPNNQSGSEQRVEVTECSDGLFCKTLTIPKVIGNDTGAYKCFYRETDLASVIYVYVQDYRSPFIASVSDQHGVVYITENKNKTVVIPCLGSISNLNVSLCARYPEKRFVPDGNRISWDSKKGFTIPSYMISYAGMVFCEAKINDESYQSIMYIVVVVGYRIYDVVLSPSHGIELSVGEKLVLNCTARTELNVGIDFNWEYPSSKHQHKKLVNRDLKTQSGSEMKKFLSTLTIDGVTRSDQGLYTCAASSGLMTKKNSTFVRVHEKPFVAFGSGMESLVEATVGERVRIPAKYLGYPPPEIKWYKNGIPLESNHTIKAGHVLTIMEVSERDTGNYTVILTNPISKEKQSHVVSLVVYVPPQIGEKSLISPVDSYQYGTTQTLTCTVYAIPPPHHIHWYWQLEEECANEPSQAVSVTNPYPCEEWRSVEDFQGGNKIEVNKNQFALIEGKNKTVSTLVIQAANVSALYKCEAVNKVGRGERVISFHVTRGPEITLQPDMQPTEQESVSLWCTADRSTFENLTWYKLGPQPLPIHVGELPTPVCKNLDTLWKLNATMFSNSTNDILIMELKNASLQDQGDYVCLAQDRKTKKRHCVVRQLTVLERVAPTITGNLENQTTSIGESIEVSCTASGNPPPQIMWFKDNETLVEDSGIVLKDGNRNLTIRRVRKEDEGLYTCQACSVLGCAKVEAFFIIEGAQEKTNLE
notes: Bought protein; also called recombinant VEGFR2/Fc; not shown: Fc part; It is captured by goat anti-human IgG-Fc in the ELISA

In test [1] the target is T1, human VEGFR2 (KDR) expressed on 293/KDR cells (human, UniProt P35968 20-1356). The test can be described thus: flow cytometry on 293/KDR cells (FIG. 13B).
Test [2] addresses T1, human VEGFR2 (KDR) expressed on 293/KDR …. Put plainly: flow cytometry on 293/KDR cells, S/N against biotin-isotype control. (In flow cytometry, cells or beads pass a laser one at a time.)
Test [3] addresses B6. The test can be described thus: ELISA on recombinant VEGFR2/Fc, absorbance at 405 nm.
In test [4] the target is B6. Put plainly: ELISA, captured recombinant VEGFR2/Fc, biotin-V21H4 (FIG. 13A); antibody alone, not conjugate. In general terms: ELISA stands for enzyme-linked immunosorbent assay.
The target of test [5] is T2, mouse VEGFR-2/Fc (R&D Systems) (mouse, UniProt P35918 20-762).
T2 construct: Bought protein; also called immobilized mouse VEGFR-2/Fc; not shown: Fc part, not described
T2 sequence (P35918 20-762 limits assumed): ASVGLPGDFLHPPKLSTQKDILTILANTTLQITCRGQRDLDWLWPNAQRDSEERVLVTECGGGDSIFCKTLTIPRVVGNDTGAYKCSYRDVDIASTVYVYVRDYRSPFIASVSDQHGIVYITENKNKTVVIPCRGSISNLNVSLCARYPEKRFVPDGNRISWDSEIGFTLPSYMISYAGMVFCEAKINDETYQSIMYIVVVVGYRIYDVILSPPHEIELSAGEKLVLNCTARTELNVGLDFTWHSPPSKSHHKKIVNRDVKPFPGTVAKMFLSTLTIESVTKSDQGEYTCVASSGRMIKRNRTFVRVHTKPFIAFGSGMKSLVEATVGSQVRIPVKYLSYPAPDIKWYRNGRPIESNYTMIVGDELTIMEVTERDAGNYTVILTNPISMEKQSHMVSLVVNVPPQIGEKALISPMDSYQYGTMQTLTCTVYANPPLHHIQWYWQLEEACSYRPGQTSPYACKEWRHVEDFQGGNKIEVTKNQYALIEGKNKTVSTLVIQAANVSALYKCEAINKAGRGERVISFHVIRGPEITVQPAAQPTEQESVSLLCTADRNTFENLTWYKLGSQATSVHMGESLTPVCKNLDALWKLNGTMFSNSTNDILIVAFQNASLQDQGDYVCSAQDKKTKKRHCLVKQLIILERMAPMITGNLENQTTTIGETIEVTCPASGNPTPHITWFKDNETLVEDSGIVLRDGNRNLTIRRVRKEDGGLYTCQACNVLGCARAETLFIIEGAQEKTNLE
Put plainly: SPR (Biacore 3000), immobilized mouse VEGFR-2/Fc. (In general: In SPR one partner is held on a chip, and binding of the other changes the refractive index at the surface.)

Test [6] deals with B6. Put plainly: SPR (Biacore 3000), immobilized human VEGFR-2/Fc; estimated from transformed data (FIG. 3).
Test [7] concerns the target B6. Put plainly: SPR (Biacore 3000), immobilized human VEGFR-2/Fc.
Test [8] addresses T3, AB1-(SEQ ID NO:9) DOS47 antibody-urease conjugate (jack bean (Canavalia ensiformis), UniProt P07374 1-840, cross-linked to the antibody; sites not stated; chemically cross-linked to urease; cross-linker and sites not stated for this conjugate).
T3 construct: Antibody-enzyme conjugate; also called AB1-DOS47
The test can be described thus: ELISA on VEGFR2/Fc captured by anti-human IgG-Fc, conjugate detected with anti-urease [panel AB1-DOS47].

In test [9] the target is T4, AB2-(SEQ ID NO:13) DOS47 antibody-urease conjugate (jack bean (Canavalia ensiformis), UniProt P07374 1-840, cross-linked to the antibody; sites not stated; chemically cross-linked to urease; cross-linker and sites not stated for this conjugate).
T4 construct: Antibody-enzyme conjugate; also called AB2-DOS47
T4 sequence (VH, as listed by the source limits assumed, chain 1 of 2): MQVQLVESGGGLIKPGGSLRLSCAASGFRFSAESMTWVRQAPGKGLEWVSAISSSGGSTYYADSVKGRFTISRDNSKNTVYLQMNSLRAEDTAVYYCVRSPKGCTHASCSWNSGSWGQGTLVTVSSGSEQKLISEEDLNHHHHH
T4 sequence (P07374 whole entry, chain 2 of 2): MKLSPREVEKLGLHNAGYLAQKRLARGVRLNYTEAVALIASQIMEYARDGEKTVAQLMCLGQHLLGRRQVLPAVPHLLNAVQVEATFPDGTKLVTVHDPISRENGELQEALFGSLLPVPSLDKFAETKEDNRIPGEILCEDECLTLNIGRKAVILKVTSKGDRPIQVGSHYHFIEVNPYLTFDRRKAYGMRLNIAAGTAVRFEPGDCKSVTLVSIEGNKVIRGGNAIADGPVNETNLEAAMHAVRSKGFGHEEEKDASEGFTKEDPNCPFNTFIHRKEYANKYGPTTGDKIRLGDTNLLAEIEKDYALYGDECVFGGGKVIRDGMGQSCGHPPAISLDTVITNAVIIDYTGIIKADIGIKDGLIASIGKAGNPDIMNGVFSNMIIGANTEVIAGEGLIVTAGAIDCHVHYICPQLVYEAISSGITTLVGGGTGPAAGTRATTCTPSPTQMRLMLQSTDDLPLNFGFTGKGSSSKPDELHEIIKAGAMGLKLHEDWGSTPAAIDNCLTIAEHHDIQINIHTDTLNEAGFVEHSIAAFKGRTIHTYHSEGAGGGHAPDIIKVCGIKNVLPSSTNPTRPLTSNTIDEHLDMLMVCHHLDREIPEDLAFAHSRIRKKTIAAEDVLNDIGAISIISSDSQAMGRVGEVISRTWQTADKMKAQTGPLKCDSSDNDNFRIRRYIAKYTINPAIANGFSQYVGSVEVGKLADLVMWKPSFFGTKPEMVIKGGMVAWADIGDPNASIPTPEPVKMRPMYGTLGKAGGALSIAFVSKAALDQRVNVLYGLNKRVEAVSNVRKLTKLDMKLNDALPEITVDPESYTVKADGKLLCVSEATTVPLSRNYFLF
Put plainly: ELISA on VEGFR2/Fc captured by anti-human IgG-Fc, conjugate detected with anti-urease [panel AB2-DOS47].

For test [10], the target named is V21H1-DOS47 (V21H1, SEQ ID NO:3, conjugated to jack bean urease through SM(PEG)2) (jack bean (Canavalia ensiformis), UniProt P07374 1-840, surface cysteines linked through SM(PEG)2 to the antibody; primary amines linked through SM(PEG)2 to urease cysteines; K66 in CDR2 was about 25% of the activated antibody). The test can be described thus: ELISA on recombinant VEGFR2/Fc, absorbance at 405 nm.
V21H1-DOS47 (V21H1, SEQ ID NO:3, conjugated to jack bean urease through SM(PEG)2), sequence (VHH, as listed by the source limits assumed, chain 1 of 2): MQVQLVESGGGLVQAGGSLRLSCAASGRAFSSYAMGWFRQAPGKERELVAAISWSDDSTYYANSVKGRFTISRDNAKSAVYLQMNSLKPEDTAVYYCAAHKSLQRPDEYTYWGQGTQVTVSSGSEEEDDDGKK
V21H1-DOS47 (V21H1, SEQ ID NO:3, conjugated to jack bean urease through SM(PEG)2), sequence (P07374 whole entry, chain 2 of 2): as the sequence (P07374 whole entry, chain 2 of 2) above

In test [11] the target is V21H4-DOS47 (V21H4, SEQ ID NO:6, conjugated to jack bean urease through BM(PEG)2) (jack bean (Canavalia ensiformis), UniProt P07374 1-840, C824, C663, C59 and C207 partly linked through BM(PEG)2 to C136 of V21H4; C136 linked through BM(PEG)2 to a urease cysteine). Described as above.
V21H4-DOS47 (V21H4, SEQ ID NO:6, conjugated to jack bean urease through BM(PEG)2), sequence (VHH, as listed by the source limits assumed, chain 1 of 2): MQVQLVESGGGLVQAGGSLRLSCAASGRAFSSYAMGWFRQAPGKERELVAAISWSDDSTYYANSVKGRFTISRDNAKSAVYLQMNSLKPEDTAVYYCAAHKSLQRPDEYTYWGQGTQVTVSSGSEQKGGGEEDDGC
V21H4-DOS47 (V21H4, SEQ ID NO:6, conjugated to jack bean urease through BM(PEG)2), sequence (P07374 whole entry, chain 2 of 2): as the sequence (P07374 whole entry, chain 2 of 2) above
Test [12] has as its target T5, V21H4-DOS47 with 2.3 antibodies per urease (jack bean (Canavalia ensiformis), UniProt P07374 1-840, surface cysteines partly linked through BM(PEG)2 to C136 of V21H4; C136 linked through BM(PEG)2 to a urease cysteine).
T5 construct: The conjugation ratio is an average value from SDS-PAGE
Put plainly: ELISA on recombinant VEGFR2/Fc, absorbance at 405 nm, V21H4-DOS47 at different antibody/urease ratios.

Test [13] addresses T6, V21H4-DOS47 with 9.4 antibodies per urease (jack bean (Canavalia ensiformis), UniProt P07374 1-840, surface cysteines partly linked through BM(PEG)2 to C136 of V21H4; C136 linked through BM(PEG)2 to a urease cysteine).
T6 construct: The conjugation ratio is an average value from SDS-PAGE
The description is as above.

For test [14], the target named is T7, V21H4-DOS47 with 3.3 antibodies per urease (jack bean (Canavalia ensiformis), UniProt P07374 1-840, surface cysteines partly linked through BM(PEG)2 to C136 of V21H4; C136 linked through BM(PEG)2 to a urease cysteine).
T7 construct: The conjugation ratio is an average value from SDS-PAGE
T7 sequence (P07374 whole entry, chain 2 of 2): as above
Described as above.

Test [15] deals with T8, V21H4-DOS47 with 1.4 antibodies per urease (jack bean (Canavalia ensiformis), UniProt P07374 1-840, surface cysteines partly linked through BM(PEG)2 to C136 of V21H4; C136 linked through BM(PEG)2 to a urease cysteine).
T8 construct: The conjugation ratio is an average value from SDS-PAGE
T8 sequence (P07374 whole entry, chain 2 of 2): as above
The test is described as above.

The target of test [16] is T9, AB4-(SEQ ID NO:27) DOS47 antibody-urease conjugate (jack bean (Canavalia ensiformis), UniProt P07374 1-840, cross-linked to the antibody; sites not stated; chemically cross-linked to urease; cross-linker and sites not stated for this conjugate).
T9 construct: Antibody-enzyme conjugate; also called AB4-DOS47
T9 sequence (VHH, as listed by the source limits assumed, chain 1 of 2): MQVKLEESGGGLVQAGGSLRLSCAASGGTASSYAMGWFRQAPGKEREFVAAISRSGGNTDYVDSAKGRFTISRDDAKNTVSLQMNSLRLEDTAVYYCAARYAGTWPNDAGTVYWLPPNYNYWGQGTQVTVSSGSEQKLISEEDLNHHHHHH
T9 sequence (P07374 whole entry, chain 2 of 2): as the sequence (P07374 whole entry, chain 2 of 2) above
The test can be described thus: ELISA on VEGFR2/Fc captured by anti-human IgG-Fc, conjugate detected with anti-urease [panel AB4-DOS47].

Some results are limits rather than exact numbers.

T3 sequence (VHH, as listed by the source limits assumed, chain 1 of 2): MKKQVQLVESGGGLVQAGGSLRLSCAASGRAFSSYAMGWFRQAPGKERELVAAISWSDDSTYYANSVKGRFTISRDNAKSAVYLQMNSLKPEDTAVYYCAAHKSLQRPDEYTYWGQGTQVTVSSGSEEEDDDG
T3 sequence (P07374 whole entry, chain 2 of 2): as the sequence (P07374 whole entry, chain 2 of 2) above
T5 sequence (P07374 whole entry, chain 2 of 2): as above
T6 sequence (P07374 whole entry, chain 2 of 2): as above

By EC50 is commonly meant the concentration needed to bring the measured effect to its halfway point. By EC50 (read off the curve) is commonly meant the midpoint of the concentration-response curve. Turning to B1, the EC50 in test [1] turned out to be 0.0016 µM; in test [4], 0.0018 µM. Moreover, the concentration for a half-maximal effect (EC50 (read off the curve)) in [2] and in test [3] was roughly 0.002 µM throughout.
What is called Kd is the equilibrium constant for the complex coming apart. By koff is commonly meant the first-order rate constant of dissociation. Usually kon stands for the second-order rate constant of association. As for B2, the binding result in [5] is recorded as “no binding (tested: 150˜200 nM)”. In test [6], the Kd is roughly 0.08 µM, the koff is less than 0.01 s⁻¹ and the kon was roughly 60000 M⁻¹ s⁻¹.
Take B3: the binding result in test [5] is listed as “no binding (tested: 150˜200 nM)”. Besides, in test [7], the Kd was found to be 0.5 µM, the koff came out at 0.02 s⁻¹ and the on-rate (kon) came out at 46000 M⁻¹ s⁻¹.
Take B4: the binding result in [5] is “no binding (tested: 150˜200 nM)”. For the same molecule, in test [7], binding was put at a Kd of 0.9 µM, the koff came out at 0.045 s⁻¹ and the kon amounted to 53000 M⁻¹ s⁻¹.
For the molecule B5, the binding result in test [5] is given as “no binding (tested: 150˜200 nM)”. Moreover, the Kd in test [7] was 0.08 µM.
For the molecule B6, the binding result in test [8], in test [9], in test [10], in test [11], in [12] and in test [13] was “binds” throughout. Moreover, the binding result in test [14], in [15] and in [16] was “binds” throughout.

Values taken from patent US20180243437A1 (published 2018).
